Source: US20210147546A1 (VRIJE UNIVERSITEIT BRUSSEL, published 2021)

Assays:
[1] = target: T1, human PD-L1 expressed on cells (lentivirally transduced HEK293T, MCF7 and 624-MEL cells; endogenous on moDCs) (human, UniProt Q9NZQ7 19-290); experiment: flow cytometry, fold increase in mean fluorescence intensity of binding to human PD-L1 compared to control sdAb
T1 construct: whole, on cells; also called PD-L1+ MCF7

[2] = target: T2, recombinant Fc-tagged human PD-L1 (R&D Systems, 156-B7) (human, UniProt Q9NZQ7 19-239); experiment: SPR competition: sdAb K2 (0,78 to 1000 nM) mixed with 25 nM PD-L1-Fc and run over immobilized PD-1 Fc. The binder is named by legend paragraph 20, not on the sheet. The text gives 9.5 nM for this figure.
T2 construct: Bought protein; Also the immunogen for the alpacas; also called PD-L1-Fc; Fc-PD-L1; not shown: Fc tag
T2 sequence (Q9NZQ7 19-239 limits assumed): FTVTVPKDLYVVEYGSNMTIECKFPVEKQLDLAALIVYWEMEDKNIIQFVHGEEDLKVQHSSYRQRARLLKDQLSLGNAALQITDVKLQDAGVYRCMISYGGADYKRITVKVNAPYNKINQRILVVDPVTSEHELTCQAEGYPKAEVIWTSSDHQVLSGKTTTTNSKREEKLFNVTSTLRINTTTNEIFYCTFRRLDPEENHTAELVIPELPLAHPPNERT
Protocol: (§1) All measurements were performed on a Biacore T200 device (GE Healtcare) at 25° C. and using Hepes-buffered saline (0.01M HEPES, pH 7.4; 0.15M NaCl, 3 mM EDTA, 0.005% Tween20) as running buffer. All recombinant proteins were dissolved to 10 μg/mL in 10 mM Na-acetate (pH 5.0) for immobilization on a CM5 sensor chip using linkage chemistry with 1-(3-(dimethylamino)propyl)-3-ethylcarbodiimide (EDC) and N-hydroxy-succinimide ([…]). Unreacted EDC-NHS linkers were blocked with 1M ethanolamine-HCl. For all measurements, SPR signals in the flow cell with immobilized protein were subtracted with those in a flow cell that underwent the same manipulations but where recombinant protein was omitted, to obtain specific binding signals (response units, RU). Affinity for human PD-L1 of the purified sdAbs was evaluated on immobilized PD-L1 protein.
(§2) To evaluate the sdAb's IC₅₀, the sdAb concentration at which the relative response of the interaction between PD-1 and PD-L1 is inhibited by half, Fc-PD-1 protein was immobilized on a CM5 chip. […] The maximum relative response values were plotted in function of competing sdAb concentration and analyzed with a “Log inhibitor versus response (variable lope)” model in Prism to calculate IC₅₀ values.

[3] = target: T3, recombinant His-tagged human PD-L1 protein (SINO Biologicals, 10084-H08H) (human, UniProt Q9NZQ7 19-238); experiment: SPR (Biacore T200), purified sdAb over immobilized recombinant human PD-L1
T3 construct: Bought protein; also called immobilized recombinant PD-L1 protein; not shown: His-tag
T3 sequence (Q9NZQ7 19-238 limits assumed): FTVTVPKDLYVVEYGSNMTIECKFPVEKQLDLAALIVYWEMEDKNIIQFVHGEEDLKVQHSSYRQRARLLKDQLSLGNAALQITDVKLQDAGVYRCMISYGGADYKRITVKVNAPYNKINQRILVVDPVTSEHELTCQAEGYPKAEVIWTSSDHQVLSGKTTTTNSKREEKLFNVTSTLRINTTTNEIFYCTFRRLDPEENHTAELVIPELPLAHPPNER
Protocol: as §1

[4] = target: T2, recombinant Fc-tagged human PD-L1 (R&D …); experiment: SPR competition: sdAb mixed with 25 nM PD-L1-Fc, run over immobilized PD-1-Fc (FIG. 5A)
Protocol: as §1, §2

[5] = target: T2, recombinant Fc-tagged human PD-L1 (R&D …); experiment: SPR competition: sdAb mixed with soluble recombinant human PD-L1, run over immobilized human PD-1 (FIG. 16B)
From the text: as §2

T1 sequence (Q9NZQ7 19-290): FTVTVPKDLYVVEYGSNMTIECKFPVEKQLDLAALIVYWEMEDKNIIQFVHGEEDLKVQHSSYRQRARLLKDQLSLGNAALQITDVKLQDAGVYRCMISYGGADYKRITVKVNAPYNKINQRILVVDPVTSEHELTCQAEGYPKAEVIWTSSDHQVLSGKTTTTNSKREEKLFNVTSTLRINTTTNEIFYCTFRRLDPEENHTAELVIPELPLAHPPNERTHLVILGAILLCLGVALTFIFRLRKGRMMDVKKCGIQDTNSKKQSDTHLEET

B1: sdAb K2 (human PD-L1-specific single domain antibody, C-terminal HIS-tag) (VHH)
VHH: QVQLQESGGGLVQPGGSLRLSCAASGFTFSSFAMSWVRQAPGKGLEWVSDIDTTGRTTDYADSVKGRFTISRDNAENTLYLQMNDLKPEDTAVYYCANVPKELVLSFGSWGPGTQVTVSS
notes: also called anti-hPD-L1 sdAb K2; K2 (huPDL1 nanobody)
[1]
  MFI PD-L1 binding (fold increase): 22.8 fold
[2]
  IC50: 10 nM
[3]
  Kd: 5.2 nM
[4]
  IC50: 9.5 nM
[5]
  IC50: 8.5 nM

B2: sdAb K3 (human PD-L1-specific single domain antibody, C-terminal HIS-tag) (VHH)
VHH: QVQLQESGGGSVQPGGSLRLSCEASGFTFSSYAMSWVRQAPGEGLEWVSDINTGGDNTDYAGSVKGRFTISRDNAKNTLYLQMDSLKPEDTAKYYCANVPKELVHSFNSWGQGTQVTVSS
notes: also called K3 (huPDL1 nanobody)
[1]
  MFI PD-L1 binding (fold increase): 23.4 fold
[3]
  Kd: 3.5 nM

B3: sdAb K4 (human PD-L1-specific single domain antibody, C-terminal HIS-tag) (VHH)
VHH: QVQLQESGGGLVQPGGSLRLSCAASGFTFSSFAMSWVRQVPGRTLEWVSDINTGGDSTDYANSVKGRFTISRDNAKNTLYLQMNSLKPDDTAVYYCANVPKELVFSFASWGRGTQVTVSS
[1]
  MFI PD-L1 binding (fold increase): 6.9 fold
[3]
  Kd: 4.5 nM
